Positions count from the first letter of the chain named. Numbers in names are those of the source.
B1: JTP188: protease variant of SEQ ID NO: 3: D79L Y82F S87G D104P A112P D142L (protein, listed as Thermoascus aurantiacus)
chain: MRLVASLTALVALSVPVFPAAVNVKRASSYLEITLSQVSNTLIKAVVQNTGSDELSFVHLNFFKDPAPVKKVSVYRDGSEVQFEGILSRYKSTGLSRDAFTYLAPGESVEDVFDIASTYDLTSGGPVTIRTEGVVPYATANSTDIAGYISYSSNVLTIDVDGAAAATVSKAITPLDRRTRISSCSGSRQSALTTALRNAASLANAAADAAQSGSASKFSEYFKTTSSSTRQTVAARLRAVAREASSSSSGATTYYCLDPFGYCSGNVLAYTLPSYNIIANCPIFYTYLPPLTSTCHAQDQATTALHEFTHAPGVYSPGTLDLAYGYQAAMGLSSSQAVMNADTYALYANAIYLGC
B2: JTP095: protease variant of SEQ ID NO: 3: N26R/T46R/D79L/S87P/A112P/D142L (protein, listed as Thermoascus aurantiacus)
chain: B1 chain with N204R, T224R, F260Y, G265P, P282D
B3: JTP092: protease variant of SEQ ID NO: 3: ΔS5/N26R/D79L/S87P/A112P/D142L (protein, listed as Thermoascus aurantiacus)
chain: MRLVASLTALVALSVPVFPAAVNVKRASSYLEITLSQVSNTLIKAVVQNTGSDELSFVHLNFFKDPAPVKKVSVYRDGSEVQFEGILSRYKSTGLSRDAFTYLAPGESVEDVFDIASTYDLTSGGPVTIRTEGVVPYATANSTDIAGYISYSSNVLTIDVDGAAAATVSKAITPLDRRTRISCSGSRQSALTTALRNAASLARAAADAAQSGSASKFSEYFKTTSSSTRQTVAARLRAVAREASSSSSGATTYYCLDPYGYCSPNVLAYTLPSYNIIANCDIFYTYLPPLTSTCHAQDQATTALHEFTHAPGVYSPGTLDLAYGYQAAMGLSSSQAVMNADTYALYANAIYLGC
B4: WT: wild type Thermoascus aurantiacus M35 metallo protease, mature peptide amino acids 1 to 177 of SEQ ID NO: 3, no substitution (protein, listed as Thermoascus aurantiacus)
chain: MRLVASLTALVALSVPVFPAAVNVKRASSYLEITLSQVSNTLIKAVVQNTGSDELSFVHLNFFKDPAPVKKVSVYRDGSEVQFEGILSRYKSTGLSRDAFTYLAPGESVEDVFDIASTYDLTSGGPVTIRTEGVVPYATANSTDIAGYISYSSNVLTIDVDGAAAATVSKAITPLDR

What was measured:
Type in all cases: biochemical
[1] = tested on: zein; assay: Relative activity assay of protease variants (zein micro titer plate)
How it was run: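 Relative activity is the ratio of zein clearance (A630 turbidity) at a higher versus lower temperature, e.g. 60/65 °C or 70/80 °C. Supernatants from 3-day yeast cultures applied to 0.05-0.1% zein agar in 20 mM sodium acetate pH 4.5 with zinc, incubated at least 4 h.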

[2] = tested on: zein; assay: Zein-BCA assay, temperature profile of purified protease variants
Experimental: Selected variants showing good thermo-stability were purified and the purified enzymes were used in a zein-BCA assay as described below. The remaining protease activity was determined at 60° C. after incubation of the enzyme at elevated temperatures as indicated for 60 min.
Zein-BCA assay was performed to detect soluble protein quantification released from zein by variant proteases at various temperatures.
• 1) Mix 10 ul of 10 ug/ml enzyme solutions and 100 ul of 0.025% zein solution in a micro titer plate (MTP). • 2) Incubate at various temperatures for 60 min. • 3) Add 10 ul of 100% trichloroacetic acid (TCA) solution. • 4) Centrifuge MTP at 3500 rpm for 5 min. • 5) Take out 15 ul to a new MTP containing 100 ul of BCA assay solution (Pierce Cat#:23225, BCA Protein Assay Kit). • 6) Incubate for 30 min. at 60° C. • 7) Measure A562.

[3] = tested on: azo-casein; assay: Remaining activity assay of protease variants (azo-casein); conditions: 10 min at 84° C., pH 4.5, 4° C. as reference
Experimental: Yeast clones on SC-glucose were inoculated to a well of a 96-well micro titre plate and cultivated at 28° C. for 3 days. Protease activity was measured at 65° C. using azo-casein (Megazyme) after incubating the culture supernatant in 20 mM sodium acetate buffer, pH 4.5, for 10 min at a certain temperature (80° C. or 84° C. with 4° C. as a reference) to determine the remaining activity. The clones with higher remaining activity than the parental variant were selected and the sequence was determined.
20 microL of samples were mixed with 150 microL of substrate solution (4 ml of 12.5% azo-casein in ethanol in 96 ml of 20 mM sodium acetate, pH 4.5, containing 0.01% triton-100 and 0.25 mM ZnSO4) and incubated for 4 hours or longer.
After adding 20 microL/well of 100% trichloroacetic acid (TCA) solution, the plate was centrifuge and 100 microL of supernatants were pipette out to measure A440.

[4] = Sample incubated 60 min at 60° C.
[5] = Sample incubated 60 min at 70° C.
[6] = Sample incubated 60 min at 75° C.
[7] = Sample incubated 60 min at 80° C.
[8] = Sample incubated 60 min at 85° C.
[9] = Sample incubated 60 min at 90° C.

Molecule | Relative activity 80° C./70° C. ([1]; Table 5, upper part) [%] | Bovine serum albumin equivalent peptide released [2, 4] [µg/mL] | Bovine serum albumin equivalent peptide released [2, 5] [µg/mL] | Bovine serum albumin equivalent peptide released [2, 6] [µg/mL] | Bovine serum albumin equivalent peptide released [2, 7] [µg/mL] | Bovine serum albumin equivalent peptide released [2, 8] [µg/mL] | Bovine serum albumin equivalent peptide released [2, 9] [µg/mL] | Bovine serum albumin equivalent peptide released ([2]; Sample incubated 60 min at 95° C.) [µg/mL] | Remaining activity 84° C. [3] [%] | Relative activity 65° C./60° C. ([1]; Table 2) [%] | Relative activity 70° C./65° C. ([1]; Table 3) [%] | Relative activity 75° C./65° C. ([1]; Table 3) [%]
B1 | 43 | 71 | 83 | 86 | 93 | 100 | 75 | 53 |  |  |  | 
B2 |  |  |  |  |  |  |  |  | 62 |  |  | 
B3 |  |  |  |  |  |  |  |  | 60 |  |  | 
B4 |  | 94 | 103 | 107 | 93 | 58 | 38 |  |  | 31 | 59 | 17
